Laboratory results: the domain aggregation screens of Martell et al. (2025)

Assay: soluble fraction after stress (log2 fold change); higher = more stays soluble; pooled small domains, quantitative proteomics
Conditions: stress: pH 4
How it was run: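 Aggregation propensity is estimated from the fold change in each domain's soluble amount after acid stress. Pooled small-domain libraries were stressed at pH 4, and higher log2 values mean more stayed soluble.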

Sequence	soluble fraction (log2)
HMDSAQLARWAATILAQNGRKITPSTMNLFLERVGDDMENIRMELEKLISYTMGSEVVTAEDVKVITTVQ	-0.82
HMDSAVLQKHLVKLIELHAPIKARNLAKILADEFGKHVDRSAVNSALYSLKAERKVEVNSSYEWSLD	0.252
HMDSDRAARLSSLTPQQFRVLRMVSEGQLNKQIAYQLNISEATVKSHVSAILQKLGVNSRTQAVILATRLD	0.147
HMDSEQLSGLVNMGFSVYQAKTALEMFDNDIERAANYL	-0.871
HMDSERTALLSSDRTSFTAREAALLIGVSQRDIYRMIEDELLDSFTVGKMIRIRRSALEWWLS	-1.46
HMDSFEEGTYRKNQRGFGFVKIENQEDEIFISKENSLNALNGDRVIVEIIEDKDRTKRAEGKIKKILKHE	-0.086
HMDSGLLSAREREVAGLVLSGMTYAEIGEAIFISPRTAEHHIARIRRRLGATSRTDLIAKLQAIVGID	-1.42
HMDSGVPEWLASALRASPVAWKNFLALPPSHQRRYVGWISSARRDETRNRRIAEAISLLVEHKRLG	0.0211
HMDSIKDQIYQILKEDILTGELRSGEQLVEQTIAARFNTSRSPVREAIKQLTGDGLVINITNKGTFVK	-0.0915
HMDSISEQIYSIIKEEILLAKRKPGEQINPRKLADEFETSVMPIRDALNQLANEGLVIRKPRVGFFVR	-0.177
HMDSITEADLLRWAHALSGIARTGLGFTESRYERERYEEVLAVAADILAASSRSHDRAALVDEWLKMVGV	-1.55
HMDSKKNLLGKNGLAFTTLRPAGTVLIDGQRHDVISNGDMIPKGATVRVIAIEGASITVEALPD	-0.309
HMDSMATVPDLVGKTEDEAKALANDAHLGVQMAGEEASDQEKGKISRQETAAGTQVAEYTTVKYWVSTGTQ	0.154
HMDSPALAIPSSAILRDGLEHIFFRQDPSDPDQVIRVVADLGLSDGRWTVVRSGLERTDQVVLSGA	-0.281
HMDSQKKNETLSSTADEIIKNYAGKRDLSEESMEQLEQFQKDMRGADVNIFTAAQIRMLDQIFQENLH	0.0679
HMDSSLVWVDYLLGSKLTKLNSSNELTGPGASAKTIGAFLGENKQSFDLYIESVHNARDTYSDILTHGT	-0.122
HMDSSSYSAKVGTLIQETRQARGMTQAQLAQALGTSQSAINRIEKGGQNISLDMLNRISEVLSSQIVTLNP	-0.255
HMDSVAKSFLAEIERFLETAGLEPTTLGKQALGDPSFVFDLRKGRSPSTRTIGKLRVWMQQQNALS	-1.24
HMDSVTLGISFNGKTRFTLDFPADAAAADIEKAALEAEQSQRYLEGMTVAKVIVVPGRIVNIVLK	-0.185
HMDSVTMYATTGVNVRSGPSTSYSIVGGLDRGDKVTRIGTSGNWTKVVWGNGSAYVFSKYLQTGY	0.232
HMDTAEQNWRLRGKLVTLGLNARQIRMALASHAPRYLEDNIAVVERDLAAGKVRNLPAYLLAALREDYRP	-0.147
HMDTEIGDILALRQIMELLDEKDRQLIIMRYFQGLTQSVTAKNLNMTQVQVSRREKKLLTFMREQLL	-0.761
HMDTEVVMINVVGMNIDKAKNSLNHKNILYKISYQDVSEGENNVVLKQSISSNTKIKKGQVVSLVVGKLN	-0.0691

Sequence	soluble fraction (log2)
HMDTFEITVEESDIDKRIDLFLAGNLESFSRSYIQDLIKKGKATISGKPVKANYRLREGDSVVLSIPKPK	-0.946
HMDTGKLQSLVGSRGVAHTVLRPSGKVMIGDDVYPAVAETGFIPRGTAIVVRREEQGQLYVVEARK	0.275
HMDTGPISGQVEADRVEVHGHLDGKISAQNVVVGQTGVVKGDIEFGENLRTEEGADIEGYIK	0.22
HMDTGPSFATRRQEAFNALTQIAASNKEFMNVAGDVLWKVADFPEAQILAQRWRRIIPPNVLGEA	-0.438
HMDTIAEFIAELTPLEQKVFHVYYEKGQSLKDTAQQAEITSTSARGALDRIRAKGRHFHLAVILFIG	-1.22
HMDTINEYERNILSLITSKPGISAVQIAADTDKSIITAKRGIKTLVDGKLIEYRGSKKTGGYFLLTQS	0.275
HMDTIYMVVAKNIKYYRLIKSMSKKDLAEAVNVTPMAISNYENGKRKPEIDILKKIANVLGVRVVDFLTVR	-0.194
HMDTKLFNYGVGKHAYISWNEGGKRTAYIGFGNDGADVLTINNVKQGGSLGIYKDKITLNSQTVLTD	-0.381
HMDTLHGRILEEFSRKIVDGTWPPGFSLPKETELADQYGVSRMTMNKVLTRLASDGFVIRRKRSGTVVAQP	-0.176
HMDTLTRAMVWTIIARAEGVDTTGGATWYAKAQEWVTAKGISDGENPNAAITRQELVTMLYRLAGEPAV	-0.681
HMDTMQQESMDTKSILATALMELTSRKNFAKITIADITHVSGFNRQTFYYHFRDKYELLSWIY	-0.117
HMDTNRIIGNKIYQLRRSINMTQQELAEKVGISVTFLSEIENGRKSMSVDTLIKLSKGLQVSLDTIVF	-0.831
HMDTPVYYYVNGNGVRMRKDASLESDILILLYKGTKVEYVDVKGEWIKVKYNNEIGYIRNDLLSAEMPD	-0.527
HMDTQITPNKAKEIALAHAGVTEAAANFKKIKLDNKNGKSIYEIEFIANKSRYEFIVDAKNGSIIKFEK	0.102
HMDTRKEREIALYEAALRLIASGVNPAAMKVQQIADEAGIGKGTVYEYFASKEEILHGMALH	-0.36
HMDTTLFGLFQNVILTQEDYEELSRTIVEDLDGLIDRLSAYMTSTGKTYKNHKATLLSWYLQDEKKFK	-1.49
HMDTVEALTEQLKKLDKRGEGQIPAPEFKQYMMNMGGKMTAEELDEMMKVADPGKEGVVNIAEFADAL	-0.229
HMDTVEFPVQVNGKVRGKITVAADAGKDAIETAALADEKVLAFLDGATPKKVIVVPGKLVNLVVQPG	≥ 0.43
HMDTVSYMSDAVKAGAVTPSHDEEARARYLLYAGFGAILLFLRYEASEPGDIESAIREFMERYGPVTAELY	0.00707
HMDTYKGFIFEVVDKYFSPTLNQKIGQAKNKQGIVLLQTKPSFTQDPKVLIEELKLIIDRDNLKA	-0.362
HMDVAAQITYAMRTMGVAPIPRNYELFYEAYIGSNPALTKELAALGSKATQEELDELGQQYF	-1.43
HMDVFPDESLKAWLIEMGFKLDQKKMNVFTVLRRMLLQTAPSVKEFRILEIVLQQSRRKLKELNDLKKS	-0.36
HMDVKQSAAGVAGRIRFELNRTLTGQGHEKFTSASQAIGPRPAAELARRLFNSGSVVGVHVFANIVTVDLL	0.088

Sequence	soluble fraction (log2)
HMDVLKMKVEDLNIGSRTVNSLTAAKIKTVAGLIKKSKESLLELDGMGNKGVEEIILALKKLGLEL	0.345
HMDVPTEEAILAYNNVPIELAAKFIGWSDITIRYALQEERAPFGMAAQNPKTGTWSYNISPGLLLKYKSGE	-0.39
HMDVPVEVFMERIVTALREGRKTTFSELMEGKPERGKVIGTFLALLQLSKGQQIQIHQEQRTGEISIEGGA	-1.03
HMDVQTVTVIENVNVRKSASENGQKLGLAYTGEKLELLMKQADGWTRVKYNGETAYVKSDYV	-0.0843
HMDVTSLDMLRFLMDQHGLRQQDLSELGSQGVVSEILAGKRELNLRHIGALARRFKVPPEVFLPA	-0.619
HMDVYKRQKLRNFIESLFEDAPKNKQTIELKEEMLQNLIDKYNDLVDSGKSSEAAYNIATAS	-0.0341
HMDWNPVRDITAHQVLAILQATHIRAPTVAAEAKRTLSSIFQFAVATLRADIDPVWPVRNALPKNKT	-0.561
HMDYARYGLSEKEAELIELIAQGMNNKEISAEIYLSEGTVRNYISELLEKLELRDRTQLAVYYYTHR	-1.52
HMDYDDLVPLDARGRLRLDGQDIILAFGRHRGRSIEEVHNHDKSYFDWLVSPAGGLEDEVIATLRERF	-1.4
HMDYENGTVKWFNTKKGYGFITRENGEDLFVHFRNIKGRGRRSLNDGEPVTFVVIEGDKGLQADQVSA	-0.754
HMDYGSLQRAIENQLEVRNYQKPKKFLTKIIQLMETIMVRHGVMVVGLTGTGKTTVIETLSRSMEQ	-0.529
HMDYIGIQAAKEAALKDADISSEQAVFTMAELDNKNNIFYYQIMFTENGTEYRYDIDALTGVIIEKNHFF	-0.0659
HMDYKLDVNFPEMYLEQIPAEKRAALIQILEQDPRPSYQKDPVRIYGMSYAGMEIHFRVDKETLYVTEVER	-0.0453
HMDYLSEFITDKVVRADGYSIRKGELSNEFKQWFITNVGTKNPKPKEIHDYMDRKFGKNKNGIWKNVKIKL	-0.0984
HMDYQEVEFEKLGKEILTKILLDINKKATKKTLKILIDGFNYDSYRSFYIAIGKAQISSDSILELLQH	-0.524
HMDYSWNFFIGFSVVDKVAGNLGTIEEIDDKTINTLFLVKNDDEDLIIPATEDFVEKIDAKKRILYLNLPE	-1.79
HMDYYASVDQVWRELGLAGPARRALIDDGLFKLSDLRKTSLAAVKELHGMGPNAIRILTTEMKKADLSFR	≥ 0.43
HMDYYDTLGVPRNASQSDIKKAYKKQSMQHHPDRTGGDDTKFKDVNEAYQVLSNSEKKQMYDQFGTA	0.0201
HMDYYNILGVNKAATAQDIKRAYRKLAKEHHPDHGGDATRLQQVNEAYDTLKDPQRREQYDS	0.0634
HMEAADAGTLAQRAAQYFNEKNYAAALDALERRAAMAPETTELRMMRGWSLLHLNRKDEARNAFATLG	-0.188
HMEAAIRNALSRVENPDETQRARIYRTAHDALIRNLENRGITDPEQVRPQVSRLKDLISVIEREYHG	-0.0565
HMEAALTLRVDKAGSLRSLLSDEQYAKTSKIIVSGEINTLDIKTLQEMSGEKGSLQSIDLSQANIVAY	-0.351
HMEAFELTPREKQVLQLLVQGKAYKIIAADLDITYDTVRAHIKKIYEKLHVGSMTEAVAKAIQHKL	0.194
